Results from patent US20190076400A1 (PROTAGONIST THERAPEUTICS, published 2019).
Read-outs that look alike come from different tables or passages of the source. Square brackets hold non-standard residues; d marks the D form. Ends that are not written are not given here. Dmt = Cc1cc(O)cc(C)c1C[C@H](N)C(=O)O; NMeI = CC[C@H](C)[C@H](NC)C(=O)O; β3hF = N[C@H](CC(=O)O)Cc1ccccc1; NMeA = CN[C@@H](C)C(=O)O; Sar = CNCC(=O)O

B1: [DMT-((D)Ala)-Gly-(β-homoPhe)-(Sar)-(D-Lys)]2-DIG (peptide)
peptide: H-[Dmt][dA]G[β3hF][Sar][dK]
modifications: not fully specified (C-terminus); printed as [DMT-((D)Ala)-Gly-(β-homoPhe)-(Sar)-(D-Lys)]2-DIG; also: homodimer: the two D-Lys joined through DIG linker (Dimer C)
B2: H-DMT-(D)Glu-G-bhF-Sar-NH2 (peptide)
peptide: H-[Dmt][dE]G[β3hF][Sar]-NH2
SMILES: Cc1cc(O)cc(C)c1C[C@H](N)C(=O)N[C@H](CCC(=O)O)C(=O)NCC(=O)N[C@H](CC(=O)N(C)CC(N)=O)Cc1ccccc1
B3: H-DMT-(D)Glu-G-bhF-N(Me)-Ala-OH (peptide)
peptide: H-[Dmt][dE]G[β3hF][NMeA]-OH
SMILES: Cc1cc(O)cc(C)c1C[C@H](N)C(=O)N[C@H](CCC(=O)O)C(=O)NCC(=O)N[C@H](CC(=O)N(C)[C@@H](C)C(=O)O)Cc1ccccc1
B4: H-DMT-(D)Glu-G-bhF-N(Me)-Ile-OH (peptide)
peptide: H-[Dmt][dE]G[β3hF][NMeI]-OH
SMILES: CC[C@H](C)[C@@H](C(=O)O)N(C)C(=O)C[C@H](Cc1ccccc1)NC(=O)CNC(=O)[C@@H](CCC(=O)O)NC(=O)[C@@H](N)Cc1c(C)cc(O)cc1C
B5: H-DMT-a-Ala-bhF-Sar-NH2 (peptide)
peptide: H-[Dmt][dA]A[β3hF][Sar]-NH2
SMILES: Cc1cc(O)cc(C)c1C[C@H](N)C(=O)N[C@H](C)C(=O)N[C@@H](C)C(=O)N[C@H](CC(=O)N(C)CC(N)=O)Cc1ccccc1

How the values were obtained:
Assay in all cases: cell-based or functional assay
[1] = target: T1, µ-opioid receptor (MOR), Human-ORPM1 (human, UniProt P35372 1-400)
T1 sequence (P35372 whole entry): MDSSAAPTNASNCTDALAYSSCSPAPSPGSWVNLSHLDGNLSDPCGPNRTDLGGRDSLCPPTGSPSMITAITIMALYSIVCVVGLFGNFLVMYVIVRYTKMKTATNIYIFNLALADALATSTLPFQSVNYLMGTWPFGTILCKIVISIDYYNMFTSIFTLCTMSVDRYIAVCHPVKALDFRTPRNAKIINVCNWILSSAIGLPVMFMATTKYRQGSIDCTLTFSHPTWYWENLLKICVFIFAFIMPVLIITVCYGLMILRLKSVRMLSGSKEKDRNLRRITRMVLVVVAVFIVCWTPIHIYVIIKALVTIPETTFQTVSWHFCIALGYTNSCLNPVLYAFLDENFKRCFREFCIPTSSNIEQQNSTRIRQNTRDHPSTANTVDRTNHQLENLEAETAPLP

[2] = target: T2, δ-opioid receptor (DOR), Human-ORPD1 (human, UniProt P41143 1-372)
T2 sequence (P41143 whole entry, stated change not applied): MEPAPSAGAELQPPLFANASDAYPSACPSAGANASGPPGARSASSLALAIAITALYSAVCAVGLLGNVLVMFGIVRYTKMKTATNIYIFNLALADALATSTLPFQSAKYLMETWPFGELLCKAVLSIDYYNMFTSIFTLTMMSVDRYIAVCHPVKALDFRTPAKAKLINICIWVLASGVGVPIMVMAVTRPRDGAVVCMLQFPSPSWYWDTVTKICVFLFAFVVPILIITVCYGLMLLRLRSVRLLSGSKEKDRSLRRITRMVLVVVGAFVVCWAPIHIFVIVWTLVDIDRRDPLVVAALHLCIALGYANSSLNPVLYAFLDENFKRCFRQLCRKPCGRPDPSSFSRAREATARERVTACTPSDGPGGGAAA

[3] = target: T1, µ-opioid receptor (MOR), Human-ORPM1; remark: listed apart in the source
[4] = target: T2, δ-opioid receptor (DOR), Human-ORPD1; remark: listed apart in the source
[5] = target: T1, µ-opioid receptor (MOR), Human-ORPM1; remark: listed apart in the source
[6] = target: T2, δ-opioid receptor (DOR), Human-ORPD1; remark: listed apart in the source
[7] = target: T1, µ-opioid receptor (MOR), Human-ORPM1; remark: listed apart in the source
[8] = target: T2, δ-opioid receptor (DOR), Human-ORPD1; remark: listed apart in the source

Row | Binder | MOR EC50 [1] [nM] | DOR EC50 [2] [nM] | MOR EC50 [3] [nM] | DOR EC50 [4] [nM] | further results
1 | H-[Dmt][dA]G[β3hF][Sar]K (also: homodimer: two monomers joined at X5 through a lysine linker (Dimer A)) [[DMT-((D)Ala)-Gly-(β-homoPhe)-(Sar)]2-Lys] | ≤ 1 | ≤ 1 |  |  | 
2 | B1 | ≤ 10 | ≤ 10 |  |  | 
3 | H-[Dmt][dA]G[β3hF][NMeA]K (also: homodimer: two monomers joined at X5 through a lysine linker (Dimer A)) [[DMT-((D)Ala)-Gly-(β-homoPhe)-(NMe-Ala)]2-Lys] | ≤ 1 | ≤ 1 |  |  | 
4 | H-[Dmt][dA]G[β3hF][Sar][dK] (also: homodimer: two monomers joined at X5 through a D-lysine linker (Dimer A)) [[DMT-((D)Ala)-Gly-(β-homoPhe)-(Sar)]2-(D-Lys)] | ≤ 10 | ≤ 10 |  |  | 
5 | B2 |  |  | ≤ 1 | ≤ 10 | 
6 | H-[Dmt][dA]G[β3hF][NMeI]K (also: homodimer: two monomers joined at X5 through a lysine linker (Dimer A)) [[DMT-((D)Ala)-Gly-(β-homoPhe)-(NMe-Ile)]2-Lys] | ≤ 10 | ≤ 10 |  |  | 
7 | B3 |  |  | ≤ 10 | ≤ 1 | 
8 | B4 |  |  | ≤ 10 | ≤ 1 | 
9 | B5 |  |  |  |  | MOR EC50 [5]: ≤ 1 nM; DOR EC50 [6]: ≤ 1 nM; MOR cAMP (EC50 nM) [7]: ≤ 1 nM; DOR cAMP (EC50 nM) [8]: ≤ 1 nM
